In paper PMC7417313 (2020):

Target: C3b C3b (Homo sapiens, UniProt P01024)
Experiment: SPR

Chain of C3b C3b (P01024 566-670): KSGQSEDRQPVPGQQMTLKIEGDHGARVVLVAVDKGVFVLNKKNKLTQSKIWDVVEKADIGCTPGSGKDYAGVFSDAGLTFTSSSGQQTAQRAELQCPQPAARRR

B1: Factor H (protein)
chain: EDCNELPPRRNTEILTGSWSDQTYPEGTQAIYKCRPGYRSLGNVIMVCRKGEWVALNPLRKCQKRPCGHPGDTPFGTFTLTGGNVFEYGVKAVYTCNEGYQLLGEINYRECDTDGWTNDIPICEVVKCLPVTAPENGKIVSSAMEPDREYHFGQAVRFVCNSGYKIEGDEEMHCSDDGFWSKEKPKCVEISCKSPDVINGSPISQKIIYKENERFQYKCNMGYEYSERGDAVCTESGWRPLPSCEEKSCDNPYIPNGDYSPLRIKHRTGDEITYQCRNGFYPATRGNTAKCTSTGWIPAPRCTLKPCDYPDIKHGGLYHENMRRPYFPVAVGKYYSYYCDEHFETPSGSYWDHIHCTQDGWSPAVPCLRKCYFPYLENGYNQNYGRKFVQGKSIDVACHPGYALPKAQTTVTCMENGWSPTPRCIRVKTCSKSSIDIENGFISESQYTYALKEKAKYQCKLGYVTADGETSGSITCGKDGWSAQPTCIKSCDIPVFMNARTKNDFTWFKLNDTLDYECHDGYESNTGSTTGSIVCGYNGWSDLPICYERECELPKIDVHLVPDRKKDQYKVGEVLKFSCKPGFTIVGPNSVQCYHFGLSPDLPICKEQVQSCGPPPELLNGNVKEKTKEEYGHSEVVEYYCNPRFLMKGPNKIQCVDGEWTTLPVCIVEESTCGDIPELEHGWAQLSSPPYYYGDSVEFNCSESFTMIGHRSITCIHGVWTQLPQCVAIDKLKKCKSSNLIILEEHLKNKKEFDHNSNIRYRCRGKEGWIHTVCINGRWDPEVNCSMAQIQLCPPPPQIPNSHNMTTTLNYRDGEKVSVLCQENYLIQEGEEITCKDGRWQSIPLCVEKIPCSQPPQIEHGTINSSRSSQESYAHGTKLSYTCEGGFRISEENETTCYMGKWSSPPQCEGLPCKSPPEISHGVVAHMSDSYQYGEEVTYKCFEGFGIDGPAIAKCLGEKWSHPPSCIKTDCLSLPSFENAIPMGEKKDVYKAGEQVTYTCATYYKMDGASNVTCINSRWTGRPTCRDTSCVNPPTVQNAYIVSRQMSKYPSGERVRYQCRSPYEMFGDEEVMCLNGNWTEPPQCKDSTGKCGPPPPIDNGDITSFPLSVYAPASSVEYQCQNLYQLEGNKRITCRNGQWSEPPKCLHPCVISREIMENYNIALRWTAKQKLYSRTGESVEFVCKRGYRLSSRSHTLRTTCWDGKLEYPTCAKR
Kd: 100 nM
